Experimental data published in patent publication US11278600B2, “Human alpha-galactosidase variants” (Codexis, Inc., priority 2014, dated 2022).

B1: 665 (protein)
chain: LDNGLACTPTMGWLHWERFMCNLDCQEEPDSCISEKLFMEMAERMVTEGWKDAGYEYLCIDDCWMAPQRDSEGRLQADPQRFPHGIRQLANHVHSKGLKLGIYADVGNKTCAGFPGSFGYYDIDAQTFADWGVDLLKFDGCYCDSLENLADGYKHMSLALNRTGRPIVYSCEWPLYMWPFQKPNYTEIRQYCNHWRNFADIDDSWASIKSILDWTSRNQERIVDVAGPGGWNDPDMLVIGNFGLSWDQQVTQMALWAIMAAPLFMSNDLRAISPQAKALLQDKDVIAINQDPLGKQGYQLRKGDNFEVWERPLSGDAWAVAIINRQEIGGPRSYTIPVASLGKGVACNPACFITQLLPVKRQLGFYNATSRLKSHINPTGTVLLQLENTMQTSLKDLL
modifications: Synthetic Polypeptide sequence of Variant No. 665 of mature Human GLA
B2: 666 (protein)
chain: LDNGLARTPTMGWLHWERFMCNLDCQEEPDSCISEKLFMEMAERMVTEGWKDAGYEYLCIDDCWMAPQRDSEGRLQADPQRFPHGIRQLANHVHSKGLKLGIYADVGNKTCAGFPGSFGYYDIDAQTFADWGVDLLKFDGCYCDSLENLADGYKHMSLALNRTGRPIVYSCEWPLYMWPFQKPNYTEIRQYCNHWRNFADIDDSWASIKSILDWTSRNQERIVDVAGLGGWNDPDMLVIGNFGLSWDQQVTQMALWAIMAAPLFMSNDLRAISPQAKALLQDKDVIAINQDPLGKQGYQLRKGDNFEVWERPLSGDAWAVAIINRQEIGGPRSYTIPVASLGKGVACNPACFITQLLPVKRQLGFYNWTSRLKSHINPTGTVLLQLENTMQTSLKDLL
modifications: Synthetic Polypeptide sequence of Variant No. 666 of mature Human GLA
B3: 671 (protein)
chain: LDNGLARTPPMGWLHWERFMCNLDCQEEPDSCISEKLFMEMAERMVTEGWKDAGYEYLCIDDCWMAPQRDSEGRLQADPQRFPHGIRQLANHVHSKGLKLGIYADVGNKTCAGFPGSFGYYDIDAQTFADWGVDLLKFDGCYCDSLENLADGYKHMSLALNRTGRPIVYSCEWPLYMWPFQKPNYTEIRQYCNHWRNFADIDDSWASIKSILDWTSRNQERIVDVAGPGGWNDPDMLVIGNFGLSWDQQVTQMALWAIMAAPLFMSNDLRAISPQAKALLQDKDVIAINQDPLGKQGYQLRKGDNFEVWERPLSGDAWAVAIINRQEIGGPRSYTIPVASLGKGVACNPACFITQLLPVKRQLGFYNATSRLKSHINPTGTVLLQLENTMQTSLKDLL
modifications: Synthetic Polypeptide sequence of Variant No. 671 of mature Human GLA
B4: 670 (protein)
chain: LDNGLARTPTMGWLHWERFMCNLDCQEEPDSCISEKLFMEMAERMVTEGWKDAGYEYLCIDDCWMAPQRDSEGRLQADPQRFPHGIRQLANHVHSKGLKLGIYADVGNKTCAGFPGSFGYYDIDAQTFADWGVDLLKFDGCYCDSLENLADGYKHMSLALNRTGRPIVYSCEWPLYMWPFQKPNYTEIRQYCNHWRNFADIDDSWASIKSILDWTSRNQERIVDVAGPGGWNDPDMLVIGNFGLSWDQQVTQMALWAIMAAPLFMSNDLRAISPQAKALLQDKDVIAINQDPLGKQGYQLRKGDLFEVWERPLSGDAWAVAIINRQEIGGPRSYTIPVASLGKGVACNPACFITQLLPVKRQLGFYNWTSRLKSHINPTGTVLLQLENTMQTSLKDLL
modifications: Synthetic Polypeptide sequence of Variant No. 670 of mature Human GLA
B5: 667 (protein)
chain: LDNGLARTPTMGWLHWERFMCNLDCQEEPGSCISEKLFMEMAERMVTEGWKDAGYEYLCIDDCWMAPQRDSEGRLQADPQRFPHGIRQLANHVHSKGLKLGIYADVGNKTCAGFPGSFGYYDIDAQTFADWGVDLLKFDGCYCDSLENLADGYKHMSLALNRTGRPIVYSCEWPLYMWPFQKPNYTEIRQYCNHWRNFADIDDSWASIKSILDWTSRNQERIVDVAGPGGWNDPDMLVIGNFGLSWDQQVTQMALWAIMAAPLFMSNDLRAISPQAKALLQDKDVIAINQDPLGKQGYQLRKGDNFEVWERPLSGDAWAVAIINRQEIGGPRSYTIPVASLGKGVACNPACFITQLLPVKRQLGFYNWTSRLKSHINPTGTVLLQLENTMQTSLKDLL
modifications: Synthetic Polypeptide sequence of Variant No. 667 of mature Human GLA
B6: 669 (protein)
chain: LDNGLARTPTMGWLHWERFMCNLDCQEEPDSCISEKLFMEMAERMVTEGWKDAGYEYLCIDDCWMAPQRDSEGRLQADPQRFPHGIRQLANHVHSKGLKLGIYADVGNKTCAGFPGSFGYYDIDAQTFADWGVDLLKFDGCYCDSLENLADGYKHMSLALNRTGRPIVYSCEWPLYMWPFQKPNYTEIRQYCNHWRNFADIDDSWASIKSILDWTSRNQERIVDVAGPGGWNDPDMLVIGNFGLSWDQQVTQMALWAIMAASLFMSNDLRAISPQAKALLQDKDVIAINQDPLGKQGYQLRKGDNFEVWERPLSGDAWAVAIINRQEIGGPRSYTIPVASLGKGVACNPACFITQLLPVKRQLGFYNWTSRLKSHINPTGTVLLQLENTMQTSLKDLL
modifications: Synthetic Polypeptide sequence of Variant No. 669 of mature Human GLA
B7: 639 (protein)
chain: LDNGLARTPTMGWLHWERFMCNLDCQEEPDSCISEKLFEEMAERMVTEGWKDAGYEYLCIDDCWMAPQRDSEGRLQADPQRFPHGIRQLANHVHSKGLKLGIYADVGNKTCAGFPGSFGYYDIDAQTFADWGVDLLKFDGCYCDSLENLADGYKHMSLALNRTGRPIVYSCEWPLYMWPFQKPNYTEIRQYCNHWRNFADIDDSWASIKSILDWTSRNQERIVDVAGPGGWNDPDMLVIGNFGLSWYQQVTQMALWAIMAAPLFMSNDLRAISPQAKALLQDKDVIAINQDPLGKQGYQLRKGDNFEVWERPLSGDAWAVAIINRQEIGGPRSYTIPVASLGKGVACNPACFITQLLPVKRQLGFYNWTSRLKSHINPTGTVLLQLENTMQTSLKDLL
modifications: Synthetic Polypeptide sequence of Variant No. 639 of mature Human GLA
B8: 668 (protein)
chain: LDNGLARTPTMGWLHWERFMCNLDCQEEPDSCISEKLFEEMAERMVTEGWKDAGYEYLCIDDCWMAPQRDSEGRLQADPQRFPHGIRQLANHVHSKGLKLGIYADVGNKTCAGFPGSFGYYDIDAQTFADWGVDLLKFDGCYCDSLENLADGYKHMSLALNRTGRPIVYSCEWPLYMWPFQKPNYTEIRQYCNHWRNFADIDDSWASIKSILDWTSRNQERIVDVAGPGGWNDPDMLVIGNFGLSWDQQVTQMALWAIMAAPLFMSNDLRAISPQAKALLQDKDVIAINQDPLGKQGYQLRKGDNFEVWERPLSGDAWAVAIINRQEIGGPRSYTIPVASLGKGVACNPACFITQLLPVKRQLGFYNWTSRLKSHINPTGTVLLQLENTMQTSLKDLL
modifications: Synthetic Polypeptide sequence of Variant No. 668 of mature Human GLA

Experiments:
Assay type in all cases: biochemical
[1] = HTP-analysis of supernatants pretreated with acid (MUGal hydrolysis); details: activity of the variant/activity of Rd7BB (SEQ ID NO: 44); challenge at pH 3.5
Outline: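 MUGal hydrolysis was tracked by fluorescence (Ex 355 nm, Em 448 nm) after a 30-180 min reaction at 37° C. in pH 4.8 McIlvaine/citrate buffer, stopped with 1 M sodium carbonate. Beforehand, yeast (INVSc1) culture supernatants carrying GLA variants were held 1-3 h at 37° C. in acidic McIlvaine buffer, pH 3.3-4.3.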

[2] = HTP-analysis of supernatants pretreated with base (MUGal hydrolysis); details: activity of the variant/activity of Rd7BB (SEQ ID NO: 44); challenge at pH 7.5
Outline: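 GLA variants were secreted by transformed INVSc1 yeast grown 66-84 h at 30° C. Supernatants were exposed to neutral-to-basic buffers (pH 7.0-9.7) at 37° C for 1-18 h, then assayed with MUGal in acidic citrate/McIlvaine buffer, with fluorescence read after quenching.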

[3] = HTP-analysis of yeast culture supernatants, no challenge (MUGal hydrolysis); details: activity of the variant/activity of Rd7BB (SEQ ID NO: 44)
Outline: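 GLA variants were expressed in INVSc1 yeast grown in SD-Ura broth with glucose at 30° C., and culture supernatants were collected after 66-84 h. Supernatant was mixed with McIlvaine buffer pH 4.8 and MUGal (2 mM stock) in 50 mM citrate, 200 mM KCl, pH 4.6, incubated at 37° C. for 30-180 minutes, then quenched with sodium carbonate.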

Molecule | Relative Activity of GLA Variants After Challenge at pH 3.5 [1] | Relative Activity of GLA Variants After Challenge at pH 7.5 [2] | Relative Activity of GLA Variants After No Challenge (NC) [3]
B1 | + (>0.5 to 1.5 relative activity over Rd7BB (SEQ ID NO: 44)) | + (>0.5 to 1.5 relative activity over Rd7BB (SEQ ID NO: 44)) | + (>0.5 to 1.5 relative activity over Rd7BB (SEQ ID NO: 44))
B2 | + (>0.5 to 1.5 relative activity over Rd7BB (SEQ ID NO: 44)) | − (<0.5 relative activity to Rd7BB (SEQ ID NO: 44)) | + (>0.5 to 1.5 relative activity over Rd7BB (SEQ ID NO: 44))
B3 | ++ (>1.5 relative activity over Rd7BB (SEQ ID NO: 44)) | + (>0.5 to 1.5 relative activity over Rd7BB (SEQ ID NO: 44)) | ++ (>1.5 relative activity over Rd7BB (SEQ ID NO: 44))
B4 | + (>0.5 to 1.5 relative activity over Rd7BB (SEQ ID NO: 44)) | + (>0.5 to 1.5 relative activity over Rd7BB (SEQ ID NO: 44)) | + (>0.5 to 1.5 relative activity over Rd7BB (SEQ ID NO: 44))
B5 | + (>0.5 to 1.5 relative activity over Rd7BB (SEQ ID NO: 44)) | + (>0.5 to 1.5 relative activity over Rd7BB (SEQ ID NO: 44)) | + (>0.5 to 1.5 relative activity over Rd7BB (SEQ ID NO: 44))
B6 | − (<0.5 relative activity to Rd7BB (SEQ ID NO: 44)) | − (<0.5 relative activity to Rd7BB (SEQ ID NO: 44)) | + (>0.5 to 1.5 relative activity over Rd7BB (SEQ ID NO: 44))
B7 | − (<0.5 relative activity to Rd7BB (SEQ ID NO: 44)) | − (<0.5 relative activity to Rd7BB (SEQ ID NO: 44)) | − (<0.5 relative activity to Rd7BB (SEQ ID NO: 44))
B8 | + (>0.5 to 1.5 relative activity over Rd7BB (SEQ ID NO: 44)) | + (>0.5 to 1.5 relative activity over Rd7BB (SEQ ID NO: 44)) | + (>0.5 to 1.5 relative activity over Rd7BB (SEQ ID NO: 44))
